This experiment deals with T1, myristoylated zGCAP2 (zebrafish), Q90WX3.
T1 chain: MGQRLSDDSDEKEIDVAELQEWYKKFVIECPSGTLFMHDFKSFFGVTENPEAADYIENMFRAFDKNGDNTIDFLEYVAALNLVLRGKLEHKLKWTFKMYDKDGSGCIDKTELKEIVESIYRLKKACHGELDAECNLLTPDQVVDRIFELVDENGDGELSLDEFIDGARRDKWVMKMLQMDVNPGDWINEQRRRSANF
The experiment can be described thus: SEC; analytical size exclusion chromatography of purified myristoylated zGCAPs on a Primaide HPLC system, as described previously (refs 12, 18, 30); Ca2+ dependence tested; data not shown. The following applies: remark: other sources report otherwise. On the technique in general: Size exclusion chromatography separates by hydrodynamic size, large species first.

Experimental findings from publication PMC4462140 are described below.

The term stoichiometry N denotes the number of molecules, sites or subunits per partner or assembly.

B1: myristoylated zGCAP2, Q90WX3 1-197 (natural protein)
chain: MGQRLSDDSDEKEIDVAELQEWYKKFVIECPSGTLFMHDFKSFFGVTENPEAADYIENMFRAFDKNGDNTIDFLEYVAALNLVLRGKLEHKLKWTFKMYDKDGSGCIDKTELKEIVESIYRLKKACHGELDAECNLLTPDQVVDRIFELVDENGDGELSLDEFIDGARRDKWVMKMLQMDVNPGDWINEQRRRSANF
modifications: here or on the partner: N-terminal myristoyl group; N-terminal myristoyl group
As to B1, the percent monomeric form came out at 80% and the stoichiometry N was found to be 2.
